# Changes are numbered by the printed parent chain. Names may count otherwise. Where no end group is shown, it is not given here.
# T1: epitope peptide Cys-CE3C long (also: biotin label, site not given here)
# T1 peptide: CSVNVDKQPKYEYSL
# B1: humanized antibody h15H11 (IGHV7-4-1 Q43R, G44S, R94P / IGKV7-3 Y36F, V78M) (antibody, human IgG4 S228P, kappa, V domains shown)
# VH: QVQLVQSGSELKKPGASVKVSCKASGYTFTDYNMHWVRQAPGRSLEWMGRINPKNGVINSNEKFKDRFVFSLDTSVSTAYLQISSLKAEDTAVYYCAPSYYGGNTDAYWGQGTLVTVSS
# VL: DIVLTQSPASLAVSPGQRATITCRASESVDNYGISFMNWFQQKPGQPPKLLIYAASSQGSGVPARFSGSGSGTDFTLTINPMEANDTANYYCQQSKEFPWTFGGGTKVEIKR
# notes: hIgG4Pro/hIgK; also called h15H11-WT; h15H11-wt
# B2: h15H11-32 (antibody, human IgG4 S228P, kappa, V domains shown)
# VH: B1 VH with D31E, T105S
# VL: B1 VL with A25V, E27D, M37L
# notes: hIgG4Pro/hIgK
# B3: h15H11-16 (antibody, human IgG4 S228P, kappa, V domains shown)
# VH: B1 VH with D31E, T105D
# VL: B1 VL
# notes: hIgG4Pro/hIgK
# B4: h15H11-13 (antibody, human IgG4 S228P, kappa, V domains shown)
# VH: B1 VH with D31E, T105D
# VL: B1 VL with E27D, M37L
# notes: hIgG4Pro/hIgK
# B5: h15H11-38 (antibody, human IgG4 S228P, kappa, V domains shown)
# VH: B1 VH with N59K
# VL: B1 VL with A25V, E27D, M37L
# notes: hIgG4Pro/hIgK
# B6: h15H11-19 (antibody, human IgG4 S228P, kappa, V domains shown)
# VH: B1 VH with D31E, N104D
# VL: B1 VL with E27D, M37L
# notes: hIgG4Pro/hIgK
# B7: h15H11-11 (antibody, human IgG4 S228P, kappa, V domains shown)
# VH: B1 VH with N59L, N104D
# VL: B1 VL with E27D, M37L
# notes: hIgG4Pro/hIgK
# B8: h15H11-33 (antibody, human IgG4 S228P, kappa, V domains shown)
# VH: B1 VH with N59Q, T105S
# VL: B1 VL with E27D, M37L
# notes: hIgG4Pro/hIgK
# B9: h15H11-30 (antibody, human IgG4 S228P, kappa, V domains shown)
# VH: B1 VH with N104D
# VL: B1 VL with E27D, M37L
# notes: hIgG4Pro/hIgK
# B10: h15H11-37 (antibody, human IgG4 S228P, kappa, V domains shown)
# VH: B1 VH with T105Q
# VL: B1 VL with A25V, E27D, M37L
# notes: hIgG4Pro/hIgK
# B11: h15H11-15 (antibody, human IgG4 S228P, kappa, V domains shown)
# VH: B1 VH with N59L, N104D
# VL: B1 VL
# notes: hIgG4Pro/hIgK
# B12: h15H11-28 (antibody, human IgG4 S228P, kappa, V domains shown)
# VH: B1 VH with D31E, T105S
# VL: B1 VL
# notes: hIgG4Pro/hIgK
# B13: h15H11-20 (antibody, human IgG4 S228P, kappa, V domains shown)
# VH: B1 VH with T105D
# VL: B1 VL
# notes: hIgG4Pro/hIgK
# B14: h15H11-26 (antibody, human IgG4 S228P, kappa, V domains shown)
# VH: B1 VH with N104D
# VL: B1 VL with A25V, E27D, M37L
# notes: hIgG4Pro/hIgK
# B15: h15H11-10 (antibody, human IgG4 S228P, kappa, V domains shown)
# VH: B1 VH with D31E, N59L, T105D
# VL: B1 VL
# notes: hIgG4Pro/hIgK
# B16: h15H11-22 (antibody, human IgG4 S228P, kappa, V domains shown)
# VH: B1 VH with D31E, N104D
# VL: B1 VL
# notes: hIgG4Pro/hIgK
# B17: h15H11-9 (antibody, human IgG4 S228P, kappa, V domains shown)
# VH: B1 VH with N59L, T105D
# VL: B1 VL with E27D, M37L
# notes: hIgG4Pro/hIgK
# B18: h15H11-1 (antibody, human IgG4 S228P, kappa, V domains shown)
# VH: B1 VH with D31E, N59L, N104D, T105D
# VL: B1 VL with E27D, M37L
# notes: hIgG4Pro/hIgK
# B19: h15H11-36 (antibody, human IgG4 S228P, kappa, V domains shown)
# VH: B1 VH with S60L
# VL: B1 VL with E27D, M37L
# notes: hIgG4Pro/hIgK
# B20: h15H11-17 (antibody, human IgG4 S228P, kappa, V domains shown)
# VH: B1 VH with T105D
# VL: B1 VL with E27D, M37L
# notes: hIgG4Pro/hIgK
# B21: h15H11-24 (antibody, human IgG4 S228P, kappa, V domains shown)
# VH: B1 VH with D31E, N59Q, T105S
# VL: B1 VL with E27D, M37L
# notes: hIgG4Pro/hIgK
# B22: h15H11-27 (antibody, human IgG4 S228P, kappa, V domains shown)
# VH: B1 VH with N59L
# VL: B1 VL with A25V, E27D, M37L
# notes: hIgG4Pro/hIgK
# B23: h15H11-2 (antibody, human IgG4 S228P, kappa, V domains shown)
# VH: B1 VH with N59L, N104D, T105D
# VL: B1 VL with E27D, M37L
# notes: hIgG4Pro/hIgK
# B24: h15H11-35 (antibody, human IgG4 S228P, kappa, V domains shown)
# VH: B1 VH with T105Q
# VL: B1 VL with E27D, M37L
# notes: hIgG4Pro/hIgK
# B25: h15H11-21 (antibody, human IgG4 S228P, kappa, V domains shown)
# VH: B1 VH with D31E, N59L
# VL: B1 VL with E27D, M37L
# notes: hIgG4Pro/hIgK
# B26: h15H11-8 (antibody, human IgG4 S228P, kappa, V domains shown)
# VH: B1 VH with N59L, T105D
# VL: B1 VL
# notes: hIgG4Pro/hIgK
# B27: h15H11-23 (antibody, human IgG4 S228P, kappa, V domains shown)
# VH: B1 VH with D31E, T105S
# VL: B1 VL with E27D, M37L
# notes: hIgG4Pro/hIgK
# B28: h15H11-25 (antibody, human IgG4 S228P, kappa, V domains shown)
# VH: B1 VH with D31E, N59L
# VL: B1 VL
# notes: hIgG4Pro/hIgK
# B29: h15H11-40 (antibody, human IgG4 S228P, kappa, V domains shown)
# VH: B1 VH with S60L
# VL: B1 VL with A25V, E27D, M37L
# notes: hIgG4Pro/hIgK
# B30: h15H11-14 (antibody, human IgG4 S228P, kappa, V domains shown)
# VH: B1 VH with N104D, T105D
# VL: B1 VL
# notes: hIgG4Pro/hIgK
# B31: h15H11-42 (antibody, human IgG4 S228P, kappa, V domains shown)
# VH: B1 VH with N104K
# VL: B1 VL
# notes: hIgG4Pro/hIgK
# B32: h15H11-12 (antibody, human IgG4 S228P, kappa, V domains shown)
# VH: B1 VH with D31E, N59L, N104D
# VL: B1 VL
# notes: hIgG4Pro/hIgK
# B33: h15H11-39 (antibody, human IgG4 S228P, kappa, V domains shown)
# VH: B1 VH with S60Y
# VL: B1 VL with E27D, M37L
# notes: hIgG4Pro/hIgK
# B34: h15H11-4 (antibody, human IgG4 S228P, kappa, V domains shown)
# VH: B1 VH with N59L, N104D, T105D
# VL: B1 VL
# notes: hIgG4Pro/hIgK
# B35: h15H11-6 (antibody, human IgG4 S228P, kappa, V domains shown)
# VH: B1 VH with N104D, T105D
# VL: B1 VL with E27D, M37L
# notes: hIgG4Pro/hIgK
# B36: h15H11-41 (antibody, human IgG4 S228P, kappa, V domains shown)
# VH: B1 VH with Y101F, T105S
# VL: B1 VL with E27D, M37L
# notes: hIgG4Pro/hIgK
# B37: h15H11-3 (antibody, human IgG4 S228P, kappa, V domains shown)
# VH: B1 VH with D31E, N59L, N104D, T105D
# VL: B1 VL
# notes: hIgG4Pro/hIgK
# B38: h15H11-18 (antibody, human IgG4 S228P, kappa, V domains shown)
# VH: B1 VH with T105D
# VL: B1 VL with A25V, E27D, M37L
# notes: hIgG4Pro/hIgK
# B39: h15H11-29 (antibody, human IgG4 S228P, kappa, V domains shown)
# VH: B1 VH with N59L
# VL: B1 VL
# notes: hIgG4Pro/hIgK
# B40: h15H11-5 (antibody, human IgG4 S228P, kappa, V domains shown)
# VH: B1 VH with D31E, N59L, N104D
# VL: B1 VL with E27D, M37L
# notes: hIgG4Pro/hIgK
# B41: h15H11-43 (antibody, human IgG4 S228P, kappa, V domains shown)
# VH: B1 VH
# VL: B1 VL with I34F
# notes: hIgG4Pro/hIgK
# B42: h15H11-31 (antibody, human IgG4 S228P, kappa, V domains shown)
# VH: B1 VH with D31E, N59Q, T105S
# VL: B1 VL
# notes: hIgG4Pro/hIgK
# B43: h15H11-7 (antibody, human IgG4 S228P, kappa, V domains shown)
# VH: B1 VH with D31E, N59L, T105D
# VL: B1 VL with E27D, M37L
# notes: hIgG4Pro/hIgK
# B44: h15H11-34 (antibody, human IgG4 S228P, kappa, V domains shown)
# VH: B1 VH with D31E, Y101F, N104Q, T105S
# VL: B1 VL with E27D, M37L
# notes: hIgG4Pro/hIgK
# Biological target: T1, epitope peptide Cys-CE3C long
# Assay: competitive ELISA, unlabeled vs biotin-labeled peptide, antibody on anti-human IgG plate
# Experimental: A diluted solution of the obtained recombinant humanized antibody, a biotin-labeled immunogen peptide, and Streptavidin-HRP (manufactured by PIERCE) were added to an anti-human IgG antibody-immobilized plate, and reacted overnight at 4° C. […] Next, a recombinant human antibody at the dilution rate, a biotin-labeled immunogen peptide, and Streptavidin-HRP (manufactured by PIERCE) were added. At the same time, a dilution series of unlabeled immunogenic peptide was added and reacted overnight at 4° C. After washing twice with ELISA wash buffer, TMB-Substrate Chromogen (manufactured by Thermo Fisher Scientific) was added to develop color, the reaction was stopped with an equal amount of 0.5N sulfuric acid, and the absorbance at 450 nm was measured. The concentration of the unlabeled peptide which attenuated the signal of the biotin-labeled peptide by half was defined as the affinity (IC50).
row,IC50 [nM],Binder
1,1.44,B1
2,0.95,B2
3,0.68,B3
4,0.64,B4
5,1.04,B5
6,0.74,B6
7,0.62,B7
8,0.98,B8
9,0.92,B9
10,1.04,B10
11,0.66,B11
12,0.91,B12
13,0.77,B13
14,0.88,B14
15,0.61,B15
16,0.8,B16
17,0.61,B17
18,0.47,B18
19,1.02,B19
20,0.7,B20
21,0.85,B21
22,0.91,B22

row,IC50 [nM],Binder
1,0.48,B23
2,1,B24
3,0.8,B25
4,0.6,B26
5,0.83,B27
6,0.86,B28
7,1.06,B29
8,0.66,B30
9,0.83,B31
10,0.62,B32
11,1.05,B33
12,0.51,B34
13,0.57,B35
14,1.07,B36
15,0.5,B37
16,0.74,B38
17,0.91,B39
18,0.52,B40
19,0.83,B41
20,0.93,B42
21,0.58,B43
22,0.99,B44
